According to publication PMC11372217 (Nature Communications, 2024):

Target: His-PADI4 (human, UniProt Q9UM07 1-663)
Assay: pull-down

Sequence of His-PADI4 (Q9UM07 whole entry): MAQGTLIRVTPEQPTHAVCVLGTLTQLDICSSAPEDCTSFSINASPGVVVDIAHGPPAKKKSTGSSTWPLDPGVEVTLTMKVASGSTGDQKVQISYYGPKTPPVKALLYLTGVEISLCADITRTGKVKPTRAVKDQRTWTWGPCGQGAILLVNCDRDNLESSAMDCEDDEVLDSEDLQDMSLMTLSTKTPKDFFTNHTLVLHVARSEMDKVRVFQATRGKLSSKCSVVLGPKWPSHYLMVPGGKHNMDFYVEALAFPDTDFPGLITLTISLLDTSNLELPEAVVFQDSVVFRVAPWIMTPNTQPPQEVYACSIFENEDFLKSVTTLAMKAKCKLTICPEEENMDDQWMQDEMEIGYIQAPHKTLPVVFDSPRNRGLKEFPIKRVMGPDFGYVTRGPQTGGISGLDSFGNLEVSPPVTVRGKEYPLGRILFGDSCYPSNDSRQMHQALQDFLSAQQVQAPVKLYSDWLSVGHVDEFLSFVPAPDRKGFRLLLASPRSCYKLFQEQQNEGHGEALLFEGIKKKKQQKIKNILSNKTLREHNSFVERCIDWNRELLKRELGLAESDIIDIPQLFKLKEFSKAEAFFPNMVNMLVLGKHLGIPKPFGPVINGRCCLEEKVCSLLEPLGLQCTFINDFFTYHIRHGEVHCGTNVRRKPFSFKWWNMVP

binding result: binds
B1: GST-HIF-1α (575-786) (domain or fragment, human, UniProt Q16665 575-786, looked up)
chain: RSFDQLSPLESSSASPESASPQSTVTVFQQTQIQEPTANATTTTATTDELKTVTKDRMEDIKILIASPSPTHIHKETTSATSSPYRDTQSRTASPNRAGKGVIEQTEKSHPRSPNVLSVALSQRTTVPEEELNPKILALQNAQRKRKMEHDGSLFQAVGIGTLLQQPDDHAATTSLSWKRVKGCKSSEQNGMEQKTIILIPSDLACRLLGQS
